Reference: patent US20160199438A1 (Eli Lilly, published 2016)
Residue numbers refer to the chain shown, from its start.

T1: human GLP-2 receptor (human, UniProt O95838 1-553)
T1 sequence (looked up): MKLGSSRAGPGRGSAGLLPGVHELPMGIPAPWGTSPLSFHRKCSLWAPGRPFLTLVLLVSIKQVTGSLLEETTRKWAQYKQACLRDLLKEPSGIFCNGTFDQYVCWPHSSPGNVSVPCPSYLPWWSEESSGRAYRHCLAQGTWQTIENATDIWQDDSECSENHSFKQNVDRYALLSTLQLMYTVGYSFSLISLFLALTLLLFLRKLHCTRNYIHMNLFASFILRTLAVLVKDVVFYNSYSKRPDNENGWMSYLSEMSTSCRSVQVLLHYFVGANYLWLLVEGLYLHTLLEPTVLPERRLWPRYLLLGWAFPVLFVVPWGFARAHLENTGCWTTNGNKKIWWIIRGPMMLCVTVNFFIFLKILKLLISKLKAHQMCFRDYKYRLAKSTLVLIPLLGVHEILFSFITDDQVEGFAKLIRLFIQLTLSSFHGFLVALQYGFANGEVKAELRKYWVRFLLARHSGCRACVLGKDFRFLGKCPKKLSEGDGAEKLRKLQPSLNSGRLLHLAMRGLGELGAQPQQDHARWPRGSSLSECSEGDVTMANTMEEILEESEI

T2: human glucose-dependent insulinotropic polypeptide receptor (human, UniProt P48546 22-466)
T2 sequence (looked up): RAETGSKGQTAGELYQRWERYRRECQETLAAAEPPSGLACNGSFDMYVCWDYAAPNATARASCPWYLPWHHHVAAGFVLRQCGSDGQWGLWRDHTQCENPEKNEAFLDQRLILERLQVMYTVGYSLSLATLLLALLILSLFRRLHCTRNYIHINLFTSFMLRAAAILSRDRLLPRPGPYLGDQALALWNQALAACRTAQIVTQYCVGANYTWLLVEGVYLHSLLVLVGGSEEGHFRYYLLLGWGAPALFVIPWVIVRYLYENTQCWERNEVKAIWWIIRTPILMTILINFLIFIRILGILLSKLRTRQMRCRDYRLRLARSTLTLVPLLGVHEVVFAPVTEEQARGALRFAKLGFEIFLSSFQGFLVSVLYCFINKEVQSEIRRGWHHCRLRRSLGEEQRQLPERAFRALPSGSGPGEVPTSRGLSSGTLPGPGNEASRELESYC

T3: GIP receptor of GLUTag cells (murine (the cell line is stated to be …, UniProt Q0P543 19-460))
T3 sequence (looked up): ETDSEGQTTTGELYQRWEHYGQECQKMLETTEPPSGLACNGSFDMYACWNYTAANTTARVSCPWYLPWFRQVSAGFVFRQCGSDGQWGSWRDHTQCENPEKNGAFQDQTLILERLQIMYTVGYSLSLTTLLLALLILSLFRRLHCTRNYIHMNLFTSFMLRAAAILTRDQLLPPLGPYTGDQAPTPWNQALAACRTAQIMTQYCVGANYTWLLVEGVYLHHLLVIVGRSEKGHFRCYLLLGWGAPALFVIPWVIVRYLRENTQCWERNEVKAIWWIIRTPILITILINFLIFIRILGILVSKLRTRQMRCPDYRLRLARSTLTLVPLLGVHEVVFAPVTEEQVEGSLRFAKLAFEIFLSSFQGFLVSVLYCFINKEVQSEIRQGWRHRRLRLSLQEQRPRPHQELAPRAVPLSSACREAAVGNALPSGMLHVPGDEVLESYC

B1: Example 3 (peptide)
peptide: YXEGTFTSDYSIXLDKIAQKAFVQWLIAGGPSSGAPPPS
modifications: Aib at positions 2 and 13; K at position 20 conjugated at the epsilon-amino group with ([2-(2-Amino-ethoxy)-ethoxy]-acetyl)2-(γGlu)1-CO-(CH2)16-CO2H; C-terminal primary amide
notes: Synthetic acylated peptide, trifluoroacetate salt
B2: Example 2 (peptide)
peptide: B1 peptide with F22X
modifications: Aib at positions 2 and 13; K at position 20 conjugated at the epsilon-amino group with ([2-(2-Amino-ethoxy)-ethoxy]-acetyl)2-(γGlu)2-CO-(CH2)18-CO2H; 1-Nal at position 22; C-terminal primary amide
notes: as for B1
B3: Example 7 (peptide)
peptide: B1 peptide with F22X
modifications: Aib at positions 2 and 13; K at position 20 conjugated at the epsilon-amino group with ([2-(2-Amino-ethoxy)-ethoxy]-acetyl)2-(γGlu)2-CO-(CH2)16-CO2H; 1-Nal at position 22; C-terminal primary amide
notes: as for B1
B4: Example 4 (peptide)
peptide: B1 peptide
modifications: Aib at positions 2 and 13; K at position 20 conjugated at the epsilon-amino group with ([2-(2-Amino-ethoxy)-ethoxy]-acetyl)2-(γGlu)2-CO-(CH2)16-CO2H; C-terminal primary amide
notes: as for B1
B5: Example 1 (peptide)
peptide: B1 peptide
modifications: Aib at positions 2 and 13; K at position 20 conjugated at the epsilon-amino group with ([2-(2-Amino-ethoxy)-ethoxy]-acetyl)2-(γGlu)1-CO-(CH2)18-CO2H; C-terminal primary amide
B6: Example 8 (peptide)
peptide: B1 peptide with F22X
modifications: Aib at positions 2 and 13; K at position 20 conjugated at the epsilon-amino group with ([2-(2-Amino-ethoxy)-ethoxy]-acetyl)2-(γGlu)1-CO-(CH2)18-CO2H; 1-Nal at position 22; C-terminal primary amide
notes: as for B1
B7: Example 5 (peptide)
peptide: B1 peptide
modifications: Aib at positions 2 and 13; K at position 20 conjugated at the epsilon-amino group with ([2-(2-Amino-ethoxy)-ethoxy]-acetyl)2-(γGlu)2-CO-(CH2)18-CO2H; C-terminal primary amide
notes: as for B1
B8: Example 6 (peptide)
peptide: B1 peptide with F22X
modifications: Aib at positions 2 and 13; K at position 20 conjugated at the epsilon-amino group with ([2-(2-Amino-ethoxy)-ethoxy]-acetyl)2-(γGlu)1-CO-(CH2)16-CO2H; 1-Nal at position 22; C-terminal primary amide
notes: as for B1

These molecules were tested against T1, human GLP-2 receptor (assay: cell-based or functional assay).

Row | Molecule | Rel EC50 (intracellular cAMP) [nM]
1 | C18-acylated human GLP-2 control (from UniProt P01275 146-178) (peptide) | 1.86
2 | B1 | 199
3 | B2 | 1610
4 | B3 | 1800
5 | B4 | 405

Each molecule was assayed against T2, human glucose-dependent insulinotropic … (assay: cell-based or functional assay).

Row | Molecule | EC50 (intracellular cAMP) [nM] | Emax, % (intracellular cAMP) [%]
6 | B1 | 3.15 | 106
7 | B5 | – | 97.9
8 | B6 | 21.1 | 108
9 | B2 | 17.5 | 94.7
10 | B7 | 8.76 | 105
11 | B3 | 8.07 | 106
12 | B8 | 4.4 | 106
13 | B4 | 3.76 | –

The molecules below were run against human glucagon receptor (human, UniProt P47871 26-477) (assay: cell-based or functional assay).
Sequence of human glucagon receptor (P47871 26-477): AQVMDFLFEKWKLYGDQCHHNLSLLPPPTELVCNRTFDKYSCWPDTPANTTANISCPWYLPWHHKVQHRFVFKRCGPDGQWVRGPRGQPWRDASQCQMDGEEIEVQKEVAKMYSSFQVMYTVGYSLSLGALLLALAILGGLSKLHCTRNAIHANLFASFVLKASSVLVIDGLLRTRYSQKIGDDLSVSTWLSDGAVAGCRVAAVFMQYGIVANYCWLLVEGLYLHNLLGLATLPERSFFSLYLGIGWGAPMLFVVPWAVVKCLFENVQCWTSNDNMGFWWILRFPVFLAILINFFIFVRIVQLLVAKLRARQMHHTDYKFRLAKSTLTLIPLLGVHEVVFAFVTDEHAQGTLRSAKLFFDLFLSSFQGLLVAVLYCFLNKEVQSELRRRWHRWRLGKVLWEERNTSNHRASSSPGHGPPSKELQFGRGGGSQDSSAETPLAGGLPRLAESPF

Row | Molecule | EC50 (intracellular cAMP) [nM]
14 | B6 | > 1000
15 | B2 | > 1000
16 | B3 | > 1000
17 | B8 | > 1000

The molecules below were run against T4, human glucagon-like peptide 1 receptor (human, UniProt P43220 24-463) (assay: cell-based or functional assay).

Row | Molecule | EC50 (intracellular cAMP) [nM] | Emax, % (intracellular cAMP) [%]
18 | B1 | 33.9 | 96.2
19 | B5 | – | 85.2
20 | B6 | 57.9 | 88.4
21 | B2 | 75.7 | 98.2
22 | B7 | – | 105
23 | B3 | 35.5 | 97.2
24 | B8 | 28.4 | 104
25 | B4 | – | 100

The molecules below were run against T4, human glucagon-like peptide 1 receptor (assay: Ki ratio hGLP-1R/hGIP-R normalized by 4.53 (native GLP-1/GIP), radioligand competition).

Row | Molecule | Molar ratio of hGLP-1R/hGIP-R
26 | B6 | 0.99
27 | B2 | 1.19
28 | B3 | 1.68
29 | B8 | 1.83

Each molecule was assayed against T2, human glucose-dependent insulinotropic … (assay: competition of [125I]GIP, SPA, hGIP-R CHO-S membranes; Ki by Cheng-Prusoff).
Procedure: The compounds are serially diluted into binding buffer. Next, 10 μL diluted compound or 100% DMSO is transferred into Corning® 3632 clear bottom assay plates containing 40 μL assay binding buffer or cold GIP (NSB at 0.1 μM final). Then, 90 μL membranes (3 μg/well), 50 μL [|¹²⁵|] GIP (Perkin Elmer Life and Analytical Sciences at 0.15 nM final in reaction), and 50 μL of WGA beads (150 μg/well) is added, sealed, and mixed on a plate shaker for 1 minute. Plates are read with a MicroBeta® scintillation counter after 12 hours of settling time at room temperature.
(§1) The IC₅₀ concentration is converted to Ki using the Cheng-Prusoff equation.

Row | Molecule | Ki [nM]
30 | B1 | 26.7
31 | B6 | 67.5
32 | B2 | 63.9
33 | B7 | 17.8
34 | B3 | 46.1
35 | B8 | 44.2
36 | B4 | 40.7

What follows are molecules tested against T4, human glucagon-like peptide 1 receptor (assay: ratio of Ki on hGLP-1R to Ki on hGIP-R (reference), radioligand competition).

Row | Molecule | Absolute ratio of hGLP-1R/hGIP-R
37 | B6 | 4.5
38 | B2 | 5.4
39 | B3 | 7.6
40 | B8 | 8.3

The molecules below were run against T3, GIP receptor of GLUTag cells (assay: cell-based or functional assay).

Row | Molecule | Average EC50, cAMP in GLUTag cells [nM]
41 | B1 | 1610
42 | B5 | 1490
43 | B2 | 2920
44 | B3 | 2750
45 | B4 | 2190

These molecules were tested against human glucose-dependent insulinotropic polypeptide receptor (human) (UniProt P48546) (assay: cell-based or functional assay).

Row | Molecule | Emax, % (intracellular cAMP) [%]
46 | human GIP(1-42)NH2 (from UniProt P09681 52-93) (ligand) | 100

Each molecule was assayed against T4, human glucagon-like peptide 1 receptor (assay: competition of I-125 GLP-1, SPA, hGLP-1R 293HEK membranes; Ki by Cheng-Prusoff).
Procedure: The hGLP-1R cDNA is subcloned into the expression plasmid phD (Trans-activated expression of fully gamma-carboxylated recombinant human protein C, an antithrombotic factor. Grinnell, B. W., Berg, D. T., Walls, J. and Yan, S. B. Bio/Technology 5: 1189-1192, 1987). This plasmid DNA is transfected into 293HEK cells and selected with 200 μg/mL Hygromycin.
The binding buffer contains 25 mM HEPES, pH 7.4, 2.5 mM CaCl₂, 1 mM MgCl₂, 0.1% fatty acid free BSA, 0.003% Tween20, and Roche Complete™ Inhibitors without EDTA. […] The peptide analog is dissolved in 100% DMSO and serially diluted in 100% DMSO. Next, 10 μL diluted compounds of the present invention or 100% DMSO are transferred into Corning® 3632 clear bottom assay plates containing 40 μL assay binding buffer or cold glucagon (NSB at 1 μM final). […] Plates are read with a PerkinElmer Life and Analytical Sciences Trilux MicroBeta® scintillation counter after 12 hours of settling time at room temperature.
as §1

Row | Molecule | Ki [nM]
47 | B1 | 427
48 | B6 | 307
49 | B2 | 344
50 | B7 | 158
51 | B3 | 352
52 | B8 | 365
53 | B4 | 714
